The values that follow come from PMC5645109 (PLoS ONE, 2017).

The target in this assay is T1, Torpedo nAChR (extract from the electric organ of Torpedo californica) (Tetronarce californica (Torpedo …, UniProt P02710;P02712;P02714;P02718)).
T1 construct: acetylcholine receptor α-subunit, Torpedo californica; acetylcholine receptor β-subunit, Torpedo californica; acetylcholine receptor γ-subunit, Torpedo californica; acetylcholine receptor δ-subunit, Torpedo californica; also called torpedo AChR antigen; source: extract of the electric organ of Torpedo californica (gift, University of Nagasaki); copies: + + +
Nature of the assay: radio immunoprecipitation assay; extract of the electric organ of Torpedo californica or extract of rat sciatic nerve as antigen; relative binding affinity; method of ref. 54. Particulars: one partner purified.

T1 sequence (P02718 whole entry, looked up, chain 1 of 4): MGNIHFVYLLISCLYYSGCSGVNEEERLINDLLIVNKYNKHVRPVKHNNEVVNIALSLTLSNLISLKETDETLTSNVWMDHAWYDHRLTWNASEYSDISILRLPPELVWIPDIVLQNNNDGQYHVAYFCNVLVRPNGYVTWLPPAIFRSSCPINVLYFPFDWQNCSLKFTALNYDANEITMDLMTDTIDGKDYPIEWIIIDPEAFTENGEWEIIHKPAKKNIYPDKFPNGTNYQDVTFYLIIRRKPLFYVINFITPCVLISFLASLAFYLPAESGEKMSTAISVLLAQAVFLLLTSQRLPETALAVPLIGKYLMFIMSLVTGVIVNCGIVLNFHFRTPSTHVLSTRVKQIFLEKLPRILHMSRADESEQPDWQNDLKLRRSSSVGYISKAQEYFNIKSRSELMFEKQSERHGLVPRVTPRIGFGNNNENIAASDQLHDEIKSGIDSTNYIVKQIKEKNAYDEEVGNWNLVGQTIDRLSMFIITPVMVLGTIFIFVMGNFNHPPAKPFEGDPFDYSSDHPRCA
T1 sequence (P02714 whole entry, looked up, chain 2 of 4): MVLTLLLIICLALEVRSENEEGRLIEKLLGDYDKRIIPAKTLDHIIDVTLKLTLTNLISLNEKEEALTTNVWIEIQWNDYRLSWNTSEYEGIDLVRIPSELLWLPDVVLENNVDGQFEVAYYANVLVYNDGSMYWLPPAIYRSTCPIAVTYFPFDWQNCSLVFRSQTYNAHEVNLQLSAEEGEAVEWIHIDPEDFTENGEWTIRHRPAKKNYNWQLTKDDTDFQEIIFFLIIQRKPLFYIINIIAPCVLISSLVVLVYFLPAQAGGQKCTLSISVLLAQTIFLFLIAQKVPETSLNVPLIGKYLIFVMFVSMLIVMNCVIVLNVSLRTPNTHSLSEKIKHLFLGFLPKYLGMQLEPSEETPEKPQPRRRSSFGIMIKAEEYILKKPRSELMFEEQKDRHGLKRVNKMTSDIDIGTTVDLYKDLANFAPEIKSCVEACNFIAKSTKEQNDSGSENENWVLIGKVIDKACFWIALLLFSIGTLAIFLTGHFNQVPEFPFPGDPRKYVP
T1 sequence (P02712 whole entry, looked up, chain 3 of 4): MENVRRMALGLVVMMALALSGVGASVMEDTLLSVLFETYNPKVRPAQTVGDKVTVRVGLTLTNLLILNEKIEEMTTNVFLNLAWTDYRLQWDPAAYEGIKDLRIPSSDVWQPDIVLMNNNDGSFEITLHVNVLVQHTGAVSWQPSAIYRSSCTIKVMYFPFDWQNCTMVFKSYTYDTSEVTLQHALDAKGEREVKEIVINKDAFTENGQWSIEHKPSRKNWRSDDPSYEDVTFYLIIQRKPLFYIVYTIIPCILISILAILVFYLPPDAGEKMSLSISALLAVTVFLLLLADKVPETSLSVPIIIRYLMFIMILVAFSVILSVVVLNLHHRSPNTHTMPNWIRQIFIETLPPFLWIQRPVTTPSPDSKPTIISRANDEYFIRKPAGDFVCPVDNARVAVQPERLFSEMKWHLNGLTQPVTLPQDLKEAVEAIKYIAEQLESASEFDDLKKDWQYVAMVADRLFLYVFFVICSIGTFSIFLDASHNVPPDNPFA
T1 sequence (P02710 whole entry, looked up, chain 4 of 4): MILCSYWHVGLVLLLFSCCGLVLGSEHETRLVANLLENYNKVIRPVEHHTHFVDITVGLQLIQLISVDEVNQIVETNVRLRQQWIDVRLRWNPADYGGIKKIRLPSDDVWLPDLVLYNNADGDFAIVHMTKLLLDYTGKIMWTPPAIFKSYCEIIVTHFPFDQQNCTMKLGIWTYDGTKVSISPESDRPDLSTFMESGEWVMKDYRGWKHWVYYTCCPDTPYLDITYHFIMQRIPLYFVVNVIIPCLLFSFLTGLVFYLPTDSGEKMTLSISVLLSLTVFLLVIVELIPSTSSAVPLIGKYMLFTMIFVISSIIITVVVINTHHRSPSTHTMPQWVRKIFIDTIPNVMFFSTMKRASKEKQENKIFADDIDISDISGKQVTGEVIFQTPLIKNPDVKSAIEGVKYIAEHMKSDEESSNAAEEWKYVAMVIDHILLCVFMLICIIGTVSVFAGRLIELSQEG

B1: rat mAb35, anti-nAChR main immunogenic region antibody (rat IgG1) (antibody, V domains shown)
VH: EVQLQESGPGLVQPSETLSLTCTVSGFSLTSYSVSWLRQPSGKGPEWMGRMWDDGGTVYNSGLKSRLSISRDTSKNQVFLKMNSLQTDDTGTYYCTRDERIRAINWFAYWGQGTLVTVSS
VL: DIVITQSPSLLSASVGDRVTLTCKGSQNIDNYLAWYQQKLGEAPKLLIYKTNSLQTGIPSRFSGSGSGTDYTLTISSLHSEDLATYYCYQYINGYTFGTGTKLELK
notes: heavy chain of rat mAb35 (rat IgG1); light chain of rat mAb35; the hybridoma clone is named for the cDNA; also called mAb35 (rat); source: rat Hybridoma
For B1, the binding result is “binds”.
